Assay results taken from the supplement of paper PMC12042874.
± gives the uncertainty stated by the source.

Test: amyloid nucleation score (Sup35N fusion, yeast selection) (log enrichment); library NNK1; higher = more nucleation; inactive = no reads after selection
Outline: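 The nucleation score is a DiMSum log enrichment of output over input reads, centred on the mode score of non-aggregating sequences. Sequences under 100 input reads were excluded, and reads came from Illumina sequencing of plasmid inserts. Psi-negative yeast expressing Sup35N fused to peptides of 20 random codons were induced with 100 μM copper sulfate for 24 hours and grown 7 days at 30°C on medium lacking adenine and uracil. Random libraries had three technical output replicates.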

Row | Substance | amyloid nucleation score
1 | QESEMVCDLSGMAFLSGLVY | -0.442 ± 0.51
2 | QFCMKSTPMSHFR | -0.772 ± 0.61
3 | QFFQPCVKC | 1.06 ± 0.57
4 | QFHFMPWIDMSFSHLVHVYG | -0.741 ± 0.29
5 | QFSYTRIEVVSDVHLVNVVN | 0.373 ± 0.3
6 | QFWHYGF | -1.04 ± 2.4
7 | QGLLPDIYVALSLCGVPGTD | -0.262 ± 0.59
8 | QGLSGDDCLHGNFKFHMSET | -0.243 ± 0.32
9 | QGWSMVWYYSLESEETT | -0.377 ± 0.6
10 | QGYASLGTQRTRPGYGKFGE | 0.382 ± 0.27
11 | QHHLIGMVRSIGEKMLAKNQ | 0.094 ± 0.34
12 | QHKTRQYHVSPVRVTIL | 0.135 ± 0.65
13 | QHWAGIPDLAF | 0.547 ± 0.64
14 | QIFYSFTLYCNRNGWRDVFL | 0.269 ± 0.59
15 | QIWPKAWPLFWPRNRKYANR | -0.077 ± 0.26
16 | QIYKVDGYFQVGILLLSPVP | -1.29 ± 0.95
17 | QKNCT | 1.01 ± 0.34
18 | QKVHANSMM | 0.973 ± 0.9
19 | QKWVFVEVCSCRVSLTNLVL | 0.233 ± 0.35
20 | QLETTLFGNAEACLFSSKGR | 0.522 ± 0.49
21 | QLLSLCLDQTVKRRYFNFRA | -0.073 ± 0.26
22 | QLSDVSRWSFIWLKGGQRST | 0.334 ± 0.84
23 | QLSVVNFKEM | -0.219 ± 0.7
24 | QMSVAG | 1.38 ± 0.28
25 | QMVQYSRKSITFLGRPVLFS | 0.291 ± 0.55

Row | Substance | amyloid nucleation score
26 | QMYVVMLVGVLFCWGTPYRL | 0.301 ± 0.39
27 | QNGRASVYFTGLAILYILID | 1.02 ± 0.25
28 | QNKSWAG | -0.509 ± 1.7
29 | QNPLMRNYNPRFCHCGLSAP | inactive
30 | QPALPSGPVDQS | 0.42 ± 0.35
31 | QPILPSPIRWFEESMDLVWG | -0.542 ± 0.4
32 | QQYSVDSRCTTVRYGLYMDM | 0.662 ± 1.1
33 | QRFWYTGFGSVPIQDIEVGI | 0.328 ± 0.32
34 | QRISWDFSWCRASWMPNLR | 0.062 ± 0.34
35 | QRLCNQWMSDKLQY | 1.84 ± 0.67
36 | QRWLWKRNLDCQRDTSL | 0.514 ± 0.75
37 | QRYKFLCLRRVENFGGYMSA | 2.54 ± 0.24
38 | QSDMGIIP | 0.153 ± 0.47
39 | QSGVNNTVLVCIVQSFSSLM | 5.5 ± 0.082
40 | QSNPSPISNMLNPDCLYKNG | -0.013 ± 0.2
41 | QSSLMLYDERRSNWIKHLAT | -0.232 ± 0.37
42 | QSTMIASMRYSFFACAVLYI | 0.074 ± 0.51
43 | QTDSTVGD | -0.522 ± 1.4
44 | QTRRYTVNCLL | inactive
45 | QYCAKSVSFRWCHLSRWLMP | 0.401 ± 0.71
46 | QYMKLGFNPCKTMVVLFLCC | 4.16 ± 0.062
47 | QYTAHMLCLALLYRFEWNEN | 2.24 ± 0.27
48 | QYVMSLITVQQYRSEFSAVM | 0.263 ± 0.25
49 | RACLQRWPNMRITCC | -0.005 ± 1.2
50 | RAELTSTTISTASVFGCGIM | 5.17 ± 0.07

Row | Substance | amyloid nucleation score
51 | RAGTLLPVLLDKVKRCSKLW | 0.222 ± 0.7
52 | RAKSGLMNGDGYRNVAQGDD | 0.155 ± 0.43
53 | RALALEPNSI | inactive
54 | RAPTFMMNLDG | 3.34 ± 0.12
55 | RARDV | 0.167 ± 0.38
56 | RASKFGLLGHMAYSIYHYVM | -0.974 ± 1.7
57 | RASRMHGQGPLKNVWEGLYQ | 0.119 ± 0.98
58 | RASWNMNFSNFFDKMCRIPS | -0.334 ± 0.35
59 | RAVANCVLSLCYWNCCLYRY | -0.343 ± 1.4
60 | RAYTCRCEFAQGFVYNLIFS | 5.4 ± 0.079
61 | RCCLVMCWCLCKNYSN | 5.38 ± 0.049
62 | RCDNLF | 0.037 ± 0.39
63 | RCGCRRVVFDGFIGIGALRA | 0.298 ± 0.6
64 | RCGGSRDSACLANWIQFTMQ | 4.67 ± 0.064
65 | RCGVRLF | -1.31 ± 1.2
66 | RCILRSTSFRAVAWM | 0.771 ± 0.67
67 | RCINGNIYNKSW | 0.18 ± 0.26
68 | RCLRTALCISMSGWCSYSNW | 1.27 ± 0.15
69 | RCMDHCSLDIQVRVLCKVSV | -0.709 ± 0.66
70 | RCNAKWL | -0.426 ± 0.77
71 | RCSCFY | inactive
72 | RCSQVGEFHFGPTDARLMGK | 0.245 ± 0.39
73 | RCSSGSRICAMRLLGYSSYI | -0.066 ± 0.75
74 | RCTSSPFVVL | 0.668 ± 0.82
75 | RCYSFRSHRRNFNIYVLSKW | inactive

Row | Substance | amyloid nucleation score
76 | RDEVGIVHRMSEPKRYGGIK | -1.11 ± 1.5
77 | RDGAVFYFMEVRVSYRFLTN | -0.392 ± 0.7
78 | RDGPSK | -0.422 ± 0.33
79 | RDKLYA | -1.2 ± 1.5
80 | RDLAPVLRYVPNESKAGVGV | -0.626 ± 0.53
81 | RDVTCRLYLMLWS | -0.641 ± 1.5
82 | REPACYSKVTLADKYRLVSE | 1.26 ± 0.74
83 | RESVINIR | 1.28 ± 0.46
84 | RFETIDANKVILSVKCRWAK | 2.56 ± 0.17
85 | RFFSGLIVHNLLCLCRPPNP | 6.58 ± 0.078
86 | RFIFIQRVNRVFLQDSWKMV | 6.39 ± 0.075
87 | RFLIGWFFSFLGCFLKRDSW | -0.571 ± 1.6
88 | RFNLCNGFMGIAKNCICIWT | 1.41 ± 0.45
89 | RFNTWFVNYLCHPLYSLEG | 5.55 ± 0.064
90 | RFRRSLLMYYGTTSVGLLRP | 0.664 ± 1.2
91 | RFSDT | -0.568 ± 0.3
92 | RFSGVFSDQLVLSD | -0.713 ± 0.68
93 | RFVCLLIGVSQLPQLRCEYR | -1.17 ± 0.47
94 | RFVWVMSYGPSTYILHVWFV | 0.248 ± 0.39
95 | RFWVYGKGILMVLGAFFCL | 0.07 ± 0.56
96 | RGAPKLCTDIDWARYFNRGL | -0.407 ± 0.4
97 | RGCRGSRQSVGSKR | -0.166 ± 0.31
98 | RGHLLGFMRRLCFIGLR | -0.372 ± 0.64
99 | RGIKCPVSCKIASSRREWWV | 0.789 ± 0.37
100 | RGMKCIMSSKDVGS | -1.13 ± 2.4

Row | Substance | amyloid nucleation score
101 | RGMSTNSRECHNMCFQVGV | 0.228 ± 0.49
102 | RGNACVT | 0.598 ± 0.34
103 | RGNLAGLVLMNRHGCV | 0.078 ± 0.4
104 | RGSPFGVSM | 5.4 ± 0.091
105 | RGSQTLGCVSGLHHHRFAIL | -1.14 ± 0.63
106 | RGVCSRDVWARLVELTAEMG | 0.459 ± 0.93
107 | RGWGELVVVNHLLRRGGGEG | -0.029 ± 0.69
108 | RGYAVNAGYSVCMYWLGTLL | 0.695 ± 0.53
109 | RHHCKTCASYCFRIFIAEMM | 0.216 ± 0.42
110 | RHSKMVQLRLSTYGVET | inactive
111 | RIANQ | -0.086 ± 0.51
112 | RIENDGLEMLGIINQQSCGS | 4.01 ± 0.11
113 | RIGNGVLKDYRLFFFETSFT | -0.727 ± 0.36
114 | RIKRILFFYSVRIWDLSDG | 2.52 ± 0.12
115 | RIKVYALMHRSGGICTFIR | 0.04 ± 0.21
116 | RILGYRIMTNWGVGSYKPGR | -0.41 ± 0.46
117 | RILVVNWVYPSTMNGVSQWS | 2.63 ± 0.2
118 | RILWSLYGGSLFPYVSVGWR | 0.552 ± 0.56
119 | RIMPEKGRNSHWMYIRVQER | 1.12 ± 0.58
120 | RINLYIMFNLLDSGVDLNS | 6.45 ± 0.071
121 | RIRVI | 0.544 ± 0.63
122 | RISRSISVDALMIRAGYLPN | inactive
123 | RITHWSGKLAFQTIVTISYL | 1.53 ± 0.41
124 | RKDLEIWYRMRLGEMPLRWM | -0.165 ± 0.33
125 | RKGSGSRLKIYVYVTVTKIG | 0.52 ± 0.93

Row | Substance | amyloid nucleation score
126 | RKHVVPGKIF | 0.006 ± 0.51
127 | RKSAQYHG | inactive
128 | RLCAQ | 0.592 ± 0.81
129 | RLCEFSSKGASL | -0.115 ± 1.1
130 | RLDRWKHEMTAVSRCHKARM | 1.24 ± 0.74
131 | RLFDVMTITYTRSLSSPSCD | 0.405 ± 1.2
132 | RLFNTAQGSHSWH | 1.56 ± 0.71
133 | RLFTYYTVRNPYVADKFYNR | 5.174 ± 0.051
134 | RLGRGKMKGWLSMLCRDCAL | -0.918 ± 0.65
135 | RLICGPWNYCCQYKYNHLVL | 4 ± 0.12
136 | RLISTGADCEVRISHIRSRN | 0.594 ± 0.48
137 | RLLSPLY | -0.773 ± 2.1
138 | RLNKWWRTKDSYTGL | 0.258 ± 0.41
139 | RLNRVSVLLFPTFDLPPFLE | 2.68 ± 0.098
140 | RLRQTGVRLRSQEMFVGEVY | -0.378 ± 0.45
141 | RLSIS | inactive
142 | RLSQLVLVVWTAQGC | -0.006 ± 0.63
143 | RLSTAMRVEVIGVSCSDARA | -0.033 ± 0.28
144 | RLTNELLGVSIRLTSWFTFH | 0.606 ± 0.48
145 | RLVGGPRRASITKNWYTEK | -0.649 ± 0.73
146 | RLVLSGWNVTVNSILYQGFI | 6.078 ± 0.06
147 | RLVPVACNPSLNKAVENSFF | 0.056 ± 1.5
148 | RLVRCMGTVIINQSHSCDRG | 0.607 ± 0.64
149 | RLYFRELSWSGLCMFELVRI | -0.117 ± 0.4
150 | RLYKFTGF | 1.09 ± 0.37

Row | Substance | amyloid nucleation score
151 | RLYLDMSIRPSWASVRFSFG | -1.19 ± 1.9
152 | RLYSDAQ | -0.003 ± 0.71
153 | RMDFMWLVKI | 4.57 ± 0.056
154 | RMGNQYPRSVKWT | -0.029 ± 0.33
155 | RMKLTQLGYSRGNDSLSVLL | -0.813 ± 1.4
156 | RMLIYVQFTRRDKVSNPLM | -0.685 ± 0.33
157 | RMLQHLVFLAGLNDVFAKGF | 1.43 ± 0.15
158 | RMNGLSGRLSTAWQFMYMWC | -0.153 ± 0.34
159 | RMSCAHDDHPIYWSCT | -0.622 ± 0.98
160 | RNGSSMGPLSM | -0.258 ± 0.71
161 | RNIRIR | -0.534 ± 0.25
162 | RNKNFPSKGDLNQGGRNNIK | 0.877 ± 0.4
163 | RNLCTWVNRKELLSSEYLLF | -0.249 ± 0.31
164 | RNLIGLV | 0.318 ± 0.68
165 | RNLLVEFSLVSKWGLSSSWR | 0.557 ± 0.51
166 | RNMKPIYFLRPTISVNRSNR | 0.594 ± 0.85
167 | RNQKGIL | -0.042 ± 0.23
168 | RNWYKW | inactive
169 | RPDALGN | -0.97 ± 0.64
170 | RPFSDLSWTLDRVWHRPCWY | 1.04 ± 0.6
171 | RPILLSSLPIHSERMWSTSL | -0.257 ± 1.4
172 | RPNLDWFLRLGFSYKCDDRR | 4.56 ± 0.13
173 | RPPCCKWRDRRCTWGIS | 0.017 ± 0.51
